T1: Ms1 270-375 (AT-hook + ABD2) (rat, UniProt Q8K4K7 270-375)
T1 sequence: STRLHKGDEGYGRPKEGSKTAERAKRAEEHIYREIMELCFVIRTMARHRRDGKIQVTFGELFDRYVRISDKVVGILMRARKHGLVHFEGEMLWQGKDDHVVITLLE


Experiments:
[1] = molecular target: T1, Ms1 270-375 (AT-hook + ABD2); assay: fluorescence titration (intrinsic Trp); settings: EMSA buffer: 20 mM phosphate, 100 mM NaCl, 0.01% Triton X-100, pH 7.5, room temperature; fluorescence and NMR buffers not given in the material
[2] = molecular target: T1, Ms1 270-375 (AT-hook + ABD2); assay: NMR titration; shifts in AT-hook only; 1:0.5 to 1:2; EMSA buffer: 20 mM phosphate, 100 mM NaCl, 0.01% Triton X-100, pH 7.5, room temperature; fluorescence and NMR buffers not given in the material; settings: protein: recombinant; tags: N-terminal TEV-cleavable poly-His (pLEICS-07); self-complementary
[3] = molecular target: T1, Ms1 270-375 (AT-hook + ABD2); assay: fluorescence titration (intrinsic Trp); EMSA buffer: 20 mM phosphate, 100 mM NaCl, 0.01% Triton X-100, pH 7.5, room temperature; fluorescence and NMR buffers not given in the material; settings: protein: recombinant; tags: N-terminal TEV-cleavable poly-His (pLEICS-07)

Molecule	Kd [3] [µM]	other results
scrambled oligo	–	Kd [1]: 31 µM
AT-hook oligo (dsDNA) DNA 1: CGAATTAATTCG DNA 2: CGAATTAATTCG	–	binding result [2]: binds
A7G oligo (dsDNA) DNA 1: GACACAGACACAATAG DNA 2: CTATTGTGTCTGTGTC	32 ± 5	–
wt oligo (dsDNA) DNA 1: GACACAAACACAATAG DNA 2: CTATTGTGTTTGTGTC	8.2 ± 1	–
